Assay results taken from article PMC4947123.

Molecular target: Ubiquitin (Ub)
Experiment: biotin-streptavidin pull-down and mass spectrometry
Conditions: N2A cells, triplicate experiments, S0: 1.5, FDR: 0.01, read off a plot

other: Welch's t-test difference (logarithmized ratio of relative protein intensities, WT vs mutant): 4.1
Substance: bioGFP-tagged OPTN wild-type (from UniProt Q96CV9) E478G
